The text below walks through data of US20250346646A1, “COMPOUNDS USEFUL TO TREAT METABOLIC DISORDERS” (President and Fellows of Harvard College, priority 2016, published 2025).

The subject of experiment [1] is diet induced obese (DIO) mice. The experiment can be described thus: Antibody treatment of obese mice on high-fat diet (fasting glucose, GTT, ITT). The settings on record: obese mice on HFD. It is filed as in vivo, mouse. The procedure: FIG. 9B is bar graph showing blood glucose levels (mg/dL) at week 0 (open bars) or week 4 (solid bars) in obese mice on a high-fat diet (HFD) treated with vehicle or anti-aP2 monoclonal antibodies CA33, CA13, CA15, CA23, or H3. Blood glucose levels were measured after 6 hours of day-time food withdrawal. *p<0.05, **p<0.01.
The test was performed after 2 weeks of treatment in obese mice on HFD with vehicle (diamonds) or anti-aP2 monoclonal antibodies (0.75 g/kg glucose)(CA33; squares)(CA15; triangles). *p<0.05.
FIG. 12A is a line graph showing glucose levels (mg/dL) vs. time (minutes) in a glucose tolerance test (GTT) following two weeks of selective antibody treatment using high affinity antibodies (CA13, CA15, CA23, and H3) versus vehicle control in high fat diet fed mice.
FIG. 12B is a line graph showing glucose levels (mg/dl) vs. time (minutes) in an insulin tolerance test (ITT) following three weeks of selective antibody treatment using high affinity antibodies (CA13, CA15, CA23, and H3) versus vehicle control in high fat diet fed mice.
Animal care and experimental procedures were performed with approval from animal care committees of Harvard University. Male mice (leptin-deficient (ob/ob) and diet induced obese (DIO) mice with C57BL/6J background) were purchased from The Jackson Laboratory (Bar Harbor, ME) and kept on a 12-hour light/dark cycle. […] Body weights were measured weekly in the fed state. Blood glucose levels were measured weekly after 6 hours of food withdrawal or after 16 hours overnight fast. […]
Twenty-four hours post transfection a bolus feed was added and the temperature was reduced to 32° C. and maintained for the duration of the culture period (12-14 days). […] The UV absorbance peak at A280 nm was collected during elution from the column using 0.1M sodium citrate pH 3.4 elution buffer and then neutralized to pH 7.4 by addition of 2M Tris-HCl pH 8.5. […]

Experiment [2] concerns HFD-induced obese aP2−/− mice. Kind of experiment: CA33 treatment of HFD-induced obese aP2−/− mice. Format: in vivo, mouse. How it is done:
FIG. 11A is a bar graph showing fasting blood glucose (mg/dL) in HFD-induced obese aP2−/− mice before (open bars) and after CA33 antibody or vehicle treatment for three weeks (solid bars).
The test was performed after 2 weeks of vehicle (triangles) or CA33 antibody treatment (squares) in aP2−/− mice.
Animal care and experimental procedures were performed with approval from animal care committees of Harvard University. Male mice (leptin-deficient (ob/ob) and diet induced obese (DIO) mice with C57BL/6J background) were purchased from The Jackson Laboratory (Bar Harbor, ME) and kept on a 12-hour light/dark cycle. DIO mice with C57BL/6J background were maintained on high-fat diet (60% kcal fat, Research Diets, Inc., D12492i) for 12 to 15 weeks before starting treatment except in clamp studies, for which they were on HFD for 20 weeks. Leptin-deficient (ob/ob) mice were maintained on regular chow diet (RD, PicoLab 5058 Lab Diet). Animals used were 18 to 31 weeks of age for dietary models and 9 to 12 weeks of age for the ob/ob model. In all experiments, at least 7 mice in each group were used, unless otherwise stated in the text. The mice were treated with 150 μl PBS (vehicle) or 1.5 mg/mouse (˜33 mg/kg) anti-aP2 monoclonal antibody in 150 μl PBS by twice weekly subcutaneous injections for 3 to 5 weeks. Before and after the treatment, blood samples were collected from the tail after 6 hours of daytime food withdrawal. Body weights were measured weekly in the fed state. Blood glucose levels were measured weekly after 6 hours of food withdrawal or after 16 hours overnight fast. After 2 weeks of treatment, glucose tolerance tests were performed by intraperitoneal glucose injections (0.75 g/kg for DIO, 0.5 g/kg for ob/ob mice). After 3 weeks of treatment, insulin tolerance tests were performed in DIO mice by intraperitoneal insulin injections (0.75 IU/kg). After 5 weeks of treatment, hyperinsulinemic-euglycemic clamp experiments were performed in DIO mice as previously described (Furuhashi et al., (2007) Nature 447, 959-965; Maeda et al., (2005) Cell metabolism 1, 107-119). […]

A further experiment concerns ob/ob mice. The experiment can be described thus: CA33 treatment of leptin-deficient ob/ob mice. Format: in vivo, mouse. How it is done: FIG. 11C is a bar graph showing fasting blood glucose levels (mg/dl) in ob/ob mice before (open bars) and after (solid bars) 3 weeks of CA33 antibody or vehicle treatment (n=10 mice per group). **p<0.01.
The test was performed after 2 weeks of vehicle (triangles) or CA33 antibody treatment (squares) in aP2−/− mice. *p<0.05.
(§1) The test was performed after 3 weeks of vehicle (triangles) or CA33 antibody treatment (squares) in aP2−/− mice.
as §1
Animal care and experimental procedures were performed with approval from animal care committees of Harvard University. Male mice (leptin-deficient (ob/ob) and diet induced obese (DIO) mice with C57BL/6J background) were purchased from The Jackson Laboratory (Bar Harbor, ME) and kept on a 12-hour light/dark cycle. DIO mice with C57BL/6J background were maintained on high-fat diet (60% kcal fat, Research Diets, Inc., D12492i) for 12 to 15 weeks before starting treatment except in clamp studies, for which they were on HFD for 20 weeks. Leptin-deficient (ob/ob) mice were maintained on regular chow diet (RD, PicoLab 5058 Lab Diet). Animals used were 18 to 31 weeks of age for dietary models and 9 to 12 weeks of age for the ob/ob model. In all experiments, at least 7 mice in each group were used, unless otherwise stated in the text. The mice were treated with 150 μl PBS (vehicle) or 1.5 mg/mouse (˜33 mg/kg) anti-aP2 monoclonal antibody in 150 μl PBS by twice weekly subcutaneous injections for 3 to 5 weeks. Before and after the treatment, blood samples were collected from the tail after 6 hours of daytime food withdrawal. Body weights were measured weekly in the fed state. Blood glucose levels were measured weekly after 6 hours of food withdrawal or after 16 hours overnight fast. After 2 weeks of treatment, glucose tolerance tests were performed by intraperitoneal glucose injections (0.75 g/kg for DIO, 0.5 g/kg for ob/ob mice). After 3 weeks of treatment, insulin tolerance tests were performed in DIO mice by intraperitoneal insulin injections (0.75 IU/kg). After 5 weeks of treatment, hyperinsulinemic-euglycemic clamp experiments were performed in DIO mice as previously described (Furuhashi et al., (2007) Nature 447, 959-965; Maeda et al., (2005) Cell metabolism 1, 107-119).
Finally, the effect of CA33 in a second model of severe genetic obesity and insulin resistance using leptin-deficient ob/ob mice was examined. Strikingly, hyperglycemia in the ob/ob mice was normalized in CA33-treated mice compared to controls (FIG. 11C).

The next experiment relates to aP2 knockout mice. Kind of experiment: Glucagon response of aP2 knockout mice given aP2, with or without CA33 preincubation. It is filed as in vivo, mouse. The conditions noted are these: CA33 preincubated with aP2. The text has this:
Mouse and rabbit-mouse hybrid monoclonal antibodies raised against the human and mouse aP2 peptides were produced and screened. […] The systemic improvement in glucose metabolism was further verified using a glucose tolerance test (GTT).

For another experiment, the target named is glucagon/aP2 complex (Homo sapiens, UniProt P01275+P15090). The experiment can be described thus: Blitz binding to tethered aP2 in glucagon plus mAb solution. The settings on record: biotinylated aP2 on streptavidin probes. How it is done: Binding affinity studies were performed using a Blitz instrument (Pall Life Sciences, Menlo Park, CA). Biotinylated aP2 was attached to streptavidin probes.
glucagon/aP2 complex, sequence (P15090 whole entry): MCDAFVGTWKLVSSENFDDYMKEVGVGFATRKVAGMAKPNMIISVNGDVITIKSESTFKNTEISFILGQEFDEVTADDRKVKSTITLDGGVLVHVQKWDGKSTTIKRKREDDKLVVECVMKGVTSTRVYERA
glucagon/aP2 complex, sequence (P01275 53-81 limits assumed): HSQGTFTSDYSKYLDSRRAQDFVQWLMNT

B1: CA33: low-affinity anti-aP2 monoclonal antibody, rabbit-mouse hybrid, produced and purified by UCB; VL Seq. ID 28, VH Seq. ID 41 (antibody, V domains shown)
VH: QSVEESGGRLVTPGTPLTLTCTVSGFSLSTYYMSWVRQAPGKGLEWIGIIYPSGSTYCASWAKGRFTISKASTTVDLKITSPTTEDTATYFCARPDNDGTSGYLSGFGLWGQGTLVTVSS
VL: DVVMTQTPASVSEPVGGTVTIKCQASEDISRYLVWYQQKPGQPPKRLIYKASTLASGVPSRFKGSGSGTDFTLTISDLECDDAATYYCQCTYGTYAGSFFYSFGGGTEVVVE
modifications: Rabbit Ab 909 VH region; Rabbit Ab 909 VL-region
Regarding B1, in experiment [1] (33 mg/kg s.c. twice weekly, week 4 vs week 0, 6 hours food withdrawal), the Fasting blood glucose entry is “significantly decreased”. The “Glucose tolerance (GTT)” value in experiment [1] (after 2 weeks of treatment, 0.75 g/kg glucose) is “significantly improved glucose tolerance”; in experiment [2] (obese aP2−/− mice, after 2 weeks of treatment), “did not affect glucose tolerance”; in the experiment with ob/ob mice (ob/ob mice, after 2 weeks, vs vehicle), “significantly improved glucose tolerance”. Further, in experiment [1] (after 3 weeks of treatment), the “Insulin sensitivity (insulin tolerance test)” value was “markedly improved insulin sensitivity”. In experiment [2] (aP2−/− mice fed a HFD), the Weight result was “failed to induce any change”. In addition, the Fasting glucose result in experiment [2] (aP2−/− mice fed a HFD, three weeks treatment) was “failed to induce any change”. The Insulin levels entry in the experiment on ob/ob mice (ob/ob mice) was “lower insulin levels”. Also, the Glucagon response entry in the experiment on ob/ob mice (ob/ob mice after 3 weeks of treatment) is “blunts the glucagon response”. Moreover, the “Hyperglycemia (fasting blood glucose)” value in the experiment with ob/ob mice (ob/ob mice, 3 weeks of treatment, vs controls) is on record as “normalized”. Further, in the experiment with aP2 knockout mice, the “Glucagon responsiveness of aP2 knockout mice” value was “prevents that”. For the same molecule, the “Binding to the glucagon/aP2 complex” value with glucagon/aP2 complex is on record as “strong binding”.
